In PMC7659345, “Viral rhodopsins 1 are an unique family of light-gated cation channels” (Nature Communications, 2020):

Tests used:
[1] = biological target: Asp76 (position 76, …); assay: UV-vis; conditions: 10 mM citrate, 10 mM MES, 10 mM HEPES, 10 mM MOPS, 10 mM CHES and 10 mM CAPS. The pH was adjusted with HCl or NaOH in steps of 0.5-0.7 units.; Dark (ground) state with all-trans retinal bound; purified, solubilised protein
[2] = biological target: Asp80 (position 80, …); assay: UV-vis; conditions: 10 mM citrate, 10 mM MES, 10 mM HEPES, 10 mM MOPS, 10 mM CHES and 10 mM CAPS. The pH was adjusted with HCl or NaOH in steps of 0.5-0.7 units.; Dark (ground) state with all-trans retinal bound; purified, solubilised protein

B1: OLPVR1 (viral rhodopsin group 1, viral channelrhodopsin) (Organic Lake phycodnavirus) (protein)
chain: MDNIIMTAYISIFVQIITAIISVYGLFIPLNFKDIILREILILELIVQIIEFIFYIWLIITLQSINEDITYVRYFDWVLTTPVMLLTTVYFFEYMNSDDGIRKKEINDRDYVYLFYICLSNFFMLLIGYLGETKQINKMLTLFGGSFFLFLTFYLLYVKYTKENWMNYIVFYFMFLVWFLYGFAFMFPFSIKNQMYNILDIVSKNIYSIFIFIVILNQSYKLL
pKa [1]: 4.8

B2: VirChR1 (viral channelrhodopsin 1, viral rhodopsin group 1) (uncultured virus (Tara Oceans metagenomic contig TARA-146-SRF-0.22-3-C376786_1)) (protein)
chain: MKDKELLLLTVKISLVVQIISGIVSSFGIFIKLAPKDYILRDILIIETVVQIVEAIFYVYIYLSLESLDNNVITSRRYFDWVITTPIMLISTILFMRYNIRILYDKSKNKQNRQNKPKSNLTTYNVIKNNKDTIIKIVIGNFIMLCFGYLGEVDILSKTISIPIGFIFFFYVFYLIWREFGSYTQQNQILFWVLFIVWGLYGVSACLPVLQKNICYNILDIISKNFYGLYIFYYIYQHRLVV
pKa [2]: 3.5
